We go through one molecule from patent US6207419A, “Thrombin inhibitory agents and methods of using same” (The University of North Carolina at Chapel Hill, priority 1999, dated 2001).

The assay addresses T1, plasma purified α-thrombin (Homo sapiens, UniProt P00734).
T1 construct: Human α-thrombin, HCII, and ATIII were purified in our laboratory from plasma; from tissue; host or cells: human plasma (purified in the authors' laboratory)
The assay is described as follows: Thrombin inhibition in the presence of glycosaminoglycans (heparin or dermatan sulfate). Type of assay: biochemical. As for the experimental part:
Protease inhibition rates were determined as described previously (Rogers, S. J., Pratt, C. W., Whinna, H. C., and Church, F. C. (1992) J. Biol. Chem. 267(6), 3613-3617; Whinna, H. C., Choi, H. U., Rosenberg, L. C., and Church, F. C. (1993) J. Biol. Chem. 268, 3920-3924; Ciaccia, A. V., Cunningham, E. L., and Church, F. C. (1995) Protein Express. Purific. 6, 806-812; Ciaccia, A. V., Willemze, A. J., and Church, F. C. (1997) J. Biol. Chem. 272(2), 888-893). All assays were performed at room temperature in 96-well microtiter plates previously coated with 2 mg/mL BSA.
In the presence of glycosaminoglycans, 5 nM rHCII (wt, CHis6, CHis5 Pro, L444R, or L444R-CHis6) was incubated with 0.5 nM thrombin and 0-1 mg/mL heparin or 0-4 mg/mL dermatan sulfate or 10 nM rATIII (wt or CHis6) was incubated with 1 nM thrombin or factor Xa and 0-1 mg/mL heparin in the presence of 2 mg/mL BSA in HNPN, pH 7.4.
Residual thrombin activity was measured with 150 μM GlyProArg-NA and 1 mg/mL pB in the absence of glycosaminoglycan, 2 mg/mL pB in the presence of heparin and 4 mg/mL in the presence of dermatan sulfate. Residual factor Xa activity was measured with 500 μM Spectrozyme FXa and 2mg/mL pB in the presence or absence of glycosaminoglycan. Residual chymotrypsin activity was measured with 150 μM AlaAlaProPhe-NA and residual trypsin activity was measured with 150 μM GlyProArg-NA. Substrate cleavage was measured by color development at […] on a Vmax Kinetic Microplate Reader (Molecular Devices).
Assays were performed at least in triplicate on two or more recombinant protein preparations. All inhibition studies were measured under pseudo-first order conditions where inhibitor [I] is at least ten-fold higher than enzyme (protease) [E], and second-order rate constants were calculated as described previously (Ciaccia, A. V., Cunningham, E. L., and Church, F. C. (1995) Protein Express. Purific. 6, 806-812; Ciaccia, A. V., Willemze, A. J., and Church, F. C. (1997) J. Biol. Chem. 272(2), 888-893).

B1: rHCII-CHis6: Recombinant HCII with six histidine residues added at the carboxyl terminus; SEQ ID NO:5 (protein)
chain: MKHSLNALLIFLIITSAWGGSKGPLDQLEKGGETAQSADPQWEQLNNKNLSMPLLPADFHKENTVTNDWIPEGEEDDDYLDLEKIFSEDDDYIDIVDSLSVSPTDSDVSAGNILQLFHGKSRIQRLNILNAKFAFNLYRVLKDQVNTFDNIFIAPVGISTAMGMISLGLKGETHEQVHSILHFKDFVNASSKYEITTIHNLFRKLTHRLFRRNFGYTLRSVNDLYIQKQFPILLDFRTKVREYYFAEAQIADFSDPAFISKTNNHIMKLTKGLIKDALENIDPATQMMILNCIYFKGSWVNKFPVEMTHNHNFRLNEREVVKVSMMQTKGNFLAANDQELDCDILQLEYVGGISMLIVVPHKMSGMKTLEAQLTPRVVERWQKSMTNRTREVLLPKFKLEKNYNLVESLKLMGIRMLFDKNGNMAGISDQRIAIDLFKHQGTITVNEEGTQATTVTTVGFMPLSTQVRFTVDRPFLFLIYEHRTSCLLFMGRVANPSRSHHHHHH
modifications: C-terminal His6 tag
B1: the “average dermatan sulfate concentration at which the maximal rate was measured (in parentheses), thrombin” value (Thrombin + dermatan sulfate, unit not printed in table (text b157: μg/mL)) came to 500. For the same molecule, the “average heparin concentration at which the maximal rate was measured (in parentheses), thrombin” value (Thrombin + heparin, unit not printed in table (text b156: μg/mL)) was 5. Further, where the note is “dermatan sulfate”, the “dermatan sulfate concentration at maximal rate of thrombin inhibition” value is “approximately 500 μg/mL”. For the same molecule, the “maximal rate of thrombin inhibition in the presence of dermatan sulfate” value (dermatan sulfate at optimal concentration) is 1.80±0.50×10^9 M^-1 min^-1. For the same molecule, under “heparin”, the “decrease in the amount of heparin required for maximal activity versus wt-rHCII” value was about 20 fold and the “heparin concentration at maximal rate of thrombin inhibition” value was 5 µg/mL. The “maximal rate of thrombin inhibition in the presence of heparin” value (heparin at optimal concentration) is recorded as 2.23±0.43×10^9 M^-1 min^-1. Under “maximal rate of dermatan sulfate curve, mean ± S.D.”, the “Inhibition Rate k2 × 10^8 (M^-1 min^-1), Thrombin + dermatan sulfate” value was 18.0 ± 5.0 × 10^8 (M^-1 min^-1). The “Inhibition Rate k2 × 10^8 (M^-1 min^-1), Thrombin + heparin” value (maximal rate of heparin curve, mean ± S.D.) was 22.3 ± 4.3 × 10^8 (M^-1 min^-1). Also, where the note is “maximal rates”, the “Ratio (variant/wt), Thrombin + dermatan sulfate” value amounted to 1.2 and the “Ratio (variant/wt), Thrombin + heparin” value amounted to 2.4. Further, the “increase in the rate of thrombin inhibition with heparin versus wt-rHCII” value (maximal rates with heparin) is recorded as over 2 fold. Also, the “increase of rate of thrombin inhibition with heparin” value (with heparin versus without) is reported as “over 100,000 fold”.
